Data taken from article PMC3485151, “A Δ38 Deletion Variant of Human Transketolase as a Model of Transketolase-Like Protein 1 Exhibits No Enzymatic Activity” (PLoS ONE, 2012).

Molecular target: the molecule itself
Test: SEC; analytical gel filtration, Superdex 200 10/30, 200 µL of 4 mg/mL protein in 50 mM glycyl-glycine pH 7.6, 500 mM NaCl, 6°C; apparent masses estimated from protein standards; semiquantitative

B1: human full-length transketolase (enzyme, UniProt P29401 1-623, looked up)
chain: MESYHKPDQQKLQALKDTANRLRISSIQATTAAGSGHPTSCCSAAEIMAVLFFHTMRYKSQDPRNPHNDRFVLSKGHAAPILYAVWAEAGFLAEAELLNLRKISSDLDGHPVPKQAFTDVATGSLGQGLGAACGMAYTGKYFDKASYRVYCLLGDGELSEGSVWEAMAFASIYKLDNLVAILDINRLGQSDPAPLQHQMDIYQKRCEAFGWHAIIVDGHSVEELCKAFGQAKHQPTAIIAKTFKGRGITGVEDKESWHGKPLPKNMAEQIIQEIYSQIQSKKKILATPPQEDAPSVDIANIRMPSLPSYKVGDKIATRKAYGQALAKLGHASDRIIALDGDTKNSTFSEIFKKEHPDRFIECYIAEQNMVSIAVGCATRNRTVPFCSTFAAFFTRAFDQIRMAAISESNINLCGSHCGVSIGEDGPSQMALEDLAMFRSVPTSTVFYPSDGVATEKAVELAANTKGICFIRTSRPENAIIYNNNEDFQVGQAKVVLKSKDDQVTVIGAGVTLHEALAAAELLKKEKINIRVLDPFTIKPLDRKLILDSARATKGRILTVEDHYYEGGIGEAVSSAVVGEPGITVTHLAVNRVPRSGKPAELLKMFGIDRDAIAQAVRGLITKA
notes: human transketolase (TKT, EC 2.2.1.1), full length, residues 1-623, expressed from a synthetic codon-optimized tkt gene in pET28a; Expressed and purified by the same protocol as TKTΔ38; also called TKT; full-length TKT; source: E. coli BL21*, purified (Ni-NTA, desalting column)
- stoichiometry N: 2
